Legend:
[1] = molecular target: T1, DNA polymerase beta I260Q (NMR, crystal) (UniProt P06746 1-335, I260Q); test: NMR; binary, 10 mM MgCl2; NMR: 50 mM HEPES, 100 mM KCl, 2 mM DTT, 10 mM MgCl2, 10% D2O, pH 7.4; crystals: 18-20% PEG 3350, 50 mM HEPES pH 7.5, 175-250 mM Na acetate, 2 mM TCEP, 1% tert-b
[2] = molecular target: T1, DNA polymerase beta I260Q (NMR, crystal); test: X-ray crystallography; binary; NaI soak; NMR: 50 mM HEPES, 100 mM KCl, 2 mM DTT, 10 mM MgCl2, 10% D2O, pH 7.4; crystals: 18-20% PEG 3350, 50 mM HEPES pH 7.5, 175-250 mM Na acetate, 2 mM TCEP, 1% tert-b

B1: NMR substrate template T (20) (dsDNA)
DNA 1: CGACCGACTGCGCATCAGCC
DNA 2: GGCTGATGCGC
DNA 3: GTCGGTCG
B1: binds [1].

B2: X-ray substrate template A (16) (dsDNA)
DNA 1: CCGACAGCGCATCAGC
DNA 2: GCTGATGCGC
DNA 3: GTCGG
B2: binds [2].

From PMC6237750
